Assay results published in the RNAGym collection of RNA variant scans (doi:10.1073/pnas.2313332121).

B1: TPR t1 (parent)
chain: GACCAAUCUGCCCUCAGAGCUCGAGAACAUCUUCGGAUGCAGAGGAGGCAGGCUUCGGUGGCGCGAUAGCGCCAACGUCCUCAACCUCCAAUGCAUCCCACCACAUGAUGAUGCCUGAAGAGCCUUGGUUUUUUG

Variants of: B1
Assay: polymerase ribozyme fitness, log enrichment relative to wild type (log ratio); higher = more active; in vitro selection for triplet polymerase activity
Summary of the method: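 One round of in vitro selection, in triplicate, was applied to PCR-built, transcribed mutant libraries of each subunit of a heterodimeric triplet polymerase ribozyme. The steps were annealing with a biotinylated primer, partner subunit and triplets, incubation frozen at −7 °C, gel excision of extended constructs, streptavidin-bead capture and RT-PCR. Fitness is the logarithm, base 2, of genotype enrichment over wild-type enrichment from inverse-variance-weighted replicate averages of Illumina-sequenced inputs and outputs, keeping genotypes with ≥10 input reads and ≥1 read per output.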

Variant	polymerase ribozyme fitness (log ratio)
GACCAAUCUGCCCUCAGAGCUCGAGAACAUCUUCGGAUGCAGAGGAGGCAGGCUUCGGUGGCGCGAUAGCGCCAACGUCCUCAACCUCCAAUGCAUCCCACCACAUGAUGAUGCCUGAAUAGCCUUGGUUUUUUC [G120U G135C]	1.16
GACCAAUCUGCCCUCAGAGCUCGAGAACAUCUUCGGAUGCAGAGGAGGCAGGCUUCGGUGGCGCGAUAGCGCCAACGUCCUCAACCUCCAAUGCAUCCCACCACAUGAUGAUGCCUCAAGAGCCUUGGUGUUUUG [G117C U130G]	-3.7
GACCAAUCUGCCCUCAGAGCUCGAGAACAUCUUCGGAUGCAGAGGAGGCAGGCUUCGGUGGCGCGAUAGCGCCAACGUCCUCAACCUCCAAUGCAUCCCACCACAUGAUGAUGCCUCAAGCGCCUUGGUUUUUUG [G117C A121C]	-3.29
GACCAAUCUGCCCUCAGAGCUCGAGAACAUCUUCGGAUGCAGAGGAGGCAGGCUUCGGUGGCGCGAUAGCGCCAACGUCCUCAACCUCCAAUGCAUCCCACCACAUGAUGAUGCCUCAAGAGCAUUGGUUUUUUG [G117C C124A]	-1.5
GACCAAUCUGCCCUCAGAGCUCGAGAACAUCUUCGGAUGCAGAGGAGGCAGGCUUCGGUGGCGCGAUAGCGCCAACGUCCUCAACCUCCAAUGCAUCCCACCACAUGAUGAUGCCUGAAGAACCUUGGUUUUUUG [G122A]	-0.49
GACCAAUCUGCCCUCAGAGCUCGAGAACAUCUUCGGAUGCAGAGGAGGCAGGCUUCGGUGGCGCGAUAGCGCCAACGUCCUCAACCUCCAAUGCAUCCCACCACAUGAUGAUGCCUCAAGAUCCUUGGUUUUUUG [G117C G122U]	-3.99
GACCAAUCUGCCCUCAGAGCUCGAGAACAUCUUCGGAUGCAGAGGAGGCAGGCUUCGGUGGCGCGAUAGCGCCAACGUCCUCAACCUCCAAUGCAUCCCACCACAUGAUGAUGCCUGAAUAGGCUUGGUUUUUUG [G120U C123G]	1.47
GACCAAUCUGCCCUCAGAGCUCGAGAACAUCUUCGGAUGCAGAGGAGGCAGGCUUCGGUGGCGCGAUAGCGCCAACGUCCUCAACCUCCAAUGCAUCCCACCACAUGAUGAUGCCUGAACAGCCUUGGUUUUUUU [G120C G135U]	-0.76
GACCAAUCUGCCCUCAGAGCUCGAGAACAUCUUCGGAUGCAGAGGAGGCAGGCUUCGGUGGCGCGAUAGCGCCAACGUCCUCAACCUCCAAUGCAUCCCACCACAUGAUGAUGCCUGAACAGCCUUGGUUUUUUA [G120C G135A]	0.738
GACCAAUCUGCCCUCAGAGCUCGAGAACAUCUUCGGAUGCAGAGGAGGCAGGCUUCGGUGGCGCGAUAGCGCCAACGUCCUCAACCUCCAAUGCAUCCCACCACAUGAUGAUGCCUCAACAGCCUUGGUUUUUUG [G117C G120C]	-3.46
GACCAAUCUGCCCUCAGAGCUCGAGAACAUCUUCGGAUGCAGAGGAGGCAGGCUUCGGUGGCGCGAUAGCGCCAACGUCCUCAACCUCCAAUGCAUCCCACCACAUGAUGAUGCCUUAAGAGCCUUGGAUUUUUG [G117U U129A]	-3.5
GACCAAUCUGCCCUCAGAGCUCGAGAACAUCUUCGGAUGCAGAGGAGGCAGGCUUCGGUGGCGCGAUAGCGCCAACGUCCUCAACCUCCAAUGCAUCCCACCACAUGAUGAUGCCUGAACAGCCUUGGUUUUUUG [G120C]	1.05
GACCAAUCUGCCCUCAGAGCUCGAGAACAUCUUCGGAUGCAGAGGAGGCAGGCUUCGGUGGCGCGAUAGCGCCAACGUCCUCAACCUCCAAUGCAUCCCACCACAUGAUGAUGCCUGAAUAGCCUUGGUUUUUUG [G120U]	0.195
GACCAAUCUGCCCUCAGAGCUCGAGAACAUCUUCGGAUGCAGAGGAGGCAGGCUUCGGUGGCGCGAUAGCGCCAACGUCCUCAACCUCCAAUGCAUCCCACCACAUGAUGAUGCCUGAAAAGCCUUGGUUUUUUG [G120A]	0.66
GACCAAUCUGCCCUCAGAGCUCGAGAACAUCUUCGGAUGCAGAGGAGGCAGGCUUCGGUGGCGCGAUAGCGCCAACGUCCUCAACCUCCAAUGCAUCCCACCACAUGAUGAUGCCUGAAGCGCCUUGAUUUUUUG [A121C G128A]	0.0676
GACCAAUCUGCCCUCAGAGCUCGAGAACAUCUUCGGAUGCAGAGGAGGCAGGCUUCGGUGGCGCGAUAGCGCCAACGUCCUCAACCUCCAAUGCAUCCCACCACAUGAUGAUGCCUGAAGCGCCUUGCUUUUUUG [A121C G128C]	-0.622
GACCAAUCUGCCCUCAGAGCUCGAGAACAUCUUCGGAUGCAGAGGAGGCAGGCUUCGGUGGCGCGAUAGCGCCAACGUCCUCAACCUCCAAUGCAUCCCACCACAUGAUGAUGCCUGAAAAGCCUUCGUUUUUUG [G120A G127C]	-0.483
GACCAAUCUGCCCUCAGAGCUCGAGAACAUCUUCGGAUGCAGAGGAGGCAGGCUUCGGUGGCGCGAUAGCGCCAACGUCCUCAACCUCCAAUGCAUCCCACCACAUGAUGAUGCCUGAUGAGCCUUUGUUUUUUG [A119U G127U]	-2.01
GACCAAUCUGCCCUCAGAGCUCGAGAACAUCUUCGGAUGCAGAGGAGGCAGGCUUCGGUGGCGCGAUAGCGCCAACGUCCUCAACCUCCAAUGCAUCCCACCACAUGAUGAUGCCUGAAUAGCCUUGCUUUUUUG [G120U G128C]	-1.03
GACCAAUCUGCCCUCAGAGCUCGAGAACAUCUUCGGAUGCAGAGGAGGCAGGCUUCGGUGGCGCGAUAGCGCCAACGUCCUCAACCUCCAAUGCAUCCCACCACAUGAUGAUGCCUGAACAGCCUUGCUUUUUUG [G120C G128C]	-2.04
GACCAAUCUGCCCUCAGAGCUCGAGAACAUCUUCGGAUGCAGAGGAGGCAGGCUUCGGUGGCGCGAUAGCGCCAACGUCCUCAACCUCCAAUGCAUCCCACCACAUGAUGAUGCCUGAAGCGCCGUGGUUUUUUG [A121C U125G]	0.923
